Assay results: IntAct's records for PubMed 35512704

B1: Speckle-type POZ protein (Homo sapiens), O43791 (parent)
chain: MSRVPSPPPPAEMSSGPVAESWCYTQIKVVKFSYMWTINNFSFCREEMGEVIKSSTFSSGANDKLKWCLRVNPKGLDEESKDYLSLYLLLVSCPKSEVRAKFKFSILNAKGEETKAMESQRAYRFVQGKDWGFKKFIRRDFLLDEANGLLPDDKLTLFCEVSVVQDSVNISGQNTMNMVKVPECRLADELGGLWENSRFTDCCLCVAGQEFQAHKAILAARSPVFSAMFEHEMEESKKNRVEINDVEPEVFKEMMCFIYTGKAPNLDKMADDLLAAADKYALERLKVMCEDALCSNLSVENAAEILILADLHSADQLKTQAVDFINYHASDVLETSGWKSMVVSHPHLVAEAYRSLASAQCPFLGPPRKRLKQS

Variants of: B1
Conditions: with pk3cg_human PIK3CG

effect of a mutation on the interaction | Variant
with no effect | MSRVPSPPPPAEMSSGPVAESWCYTQIKVVKFSYMWTINNFSFCREEMGEVIKSSTFSSGANDKLKWCLRVNPKGLDEESKDYLSLYLLLVSCPKSEVRAKFKFSILNAKGEETKAMESQRAYRFVQGKDWGVKKFIRRDFLLDEANGLLPDDKLTLFCEVSVVQDSVNISGQNTMNMVKVPECRLADELGGLWENSRFTDCCLCVAGQEFQAHKAILAARSPVFSAMFEHEMEESKKNRVEINDVEPEVFKEMMCFIYTGKAPNLDKMADDLLAAADKYALERLKVMCEDALCSNLSVENAAEILILADLHSADQLKTQAVDFINYHASDVLETSGWKSMVVSHPHLVAEAYRSLASAQCPFLGPPRKRLKQS [F133V]

Variants of: B1
Conditions: with p85b_human PIK3R2, O00459
p85b_human PIK3R2, O00459, sequence (O00459 whole entry): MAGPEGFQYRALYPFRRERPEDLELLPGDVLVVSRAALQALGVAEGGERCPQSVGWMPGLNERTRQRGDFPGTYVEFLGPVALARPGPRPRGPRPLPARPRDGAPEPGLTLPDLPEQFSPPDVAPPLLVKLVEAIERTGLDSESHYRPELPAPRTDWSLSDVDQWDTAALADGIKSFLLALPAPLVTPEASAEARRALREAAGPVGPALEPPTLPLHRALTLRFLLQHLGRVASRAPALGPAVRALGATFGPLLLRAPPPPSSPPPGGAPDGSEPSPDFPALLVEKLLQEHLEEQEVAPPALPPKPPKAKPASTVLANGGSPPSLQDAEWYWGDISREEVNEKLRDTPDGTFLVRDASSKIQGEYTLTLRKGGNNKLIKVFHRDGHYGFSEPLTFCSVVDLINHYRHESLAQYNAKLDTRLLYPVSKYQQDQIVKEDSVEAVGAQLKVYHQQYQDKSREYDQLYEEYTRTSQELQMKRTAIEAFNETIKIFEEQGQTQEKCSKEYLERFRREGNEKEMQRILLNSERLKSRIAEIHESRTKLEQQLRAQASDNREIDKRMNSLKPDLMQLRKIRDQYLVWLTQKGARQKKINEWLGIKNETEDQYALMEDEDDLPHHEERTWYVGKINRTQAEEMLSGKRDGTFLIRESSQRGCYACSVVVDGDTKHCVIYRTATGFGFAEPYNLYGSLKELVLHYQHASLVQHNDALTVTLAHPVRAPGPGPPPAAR

effect of a mutation on the interaction | Variant
with no effect | MSRVPSPPPPAEMSSGPVAESWCYTQIKVVKFSYMWTINNFSFCREEMGEVIKSSTFSSGANDKLKWCLRVNPKGLDEESKDYLSLYLLLVSCPKSEVRAKFKFSILNAKGEETKAMESQRAYRFVQGKDWGVKKFIRRDFLLDEANGLLPDDKLTLFCEVSVVQDSVNISGQNTMNMVKVPECRLADELGGLWENSRFTDCCLCVAGQEFQAHKAILAARSPVFSAMFEHEMEESKKNRVEINDVEPEVFKEMMCFIYTGKAPNLDKMADDLLAAADKYALERLKVMCEDALCSNLSVENAAEILILADLHSADQLKTQAVDFINYHASDVLETSGWKSMVVSHPHLVAEAYRSLASAQCPFLGPPRKRLKQS [F133V]

Variants of: B1
Conditions: with dpod1_human POLD1, P28340
dpod1_human POLD1, P28340, sequence (P28340 whole entry): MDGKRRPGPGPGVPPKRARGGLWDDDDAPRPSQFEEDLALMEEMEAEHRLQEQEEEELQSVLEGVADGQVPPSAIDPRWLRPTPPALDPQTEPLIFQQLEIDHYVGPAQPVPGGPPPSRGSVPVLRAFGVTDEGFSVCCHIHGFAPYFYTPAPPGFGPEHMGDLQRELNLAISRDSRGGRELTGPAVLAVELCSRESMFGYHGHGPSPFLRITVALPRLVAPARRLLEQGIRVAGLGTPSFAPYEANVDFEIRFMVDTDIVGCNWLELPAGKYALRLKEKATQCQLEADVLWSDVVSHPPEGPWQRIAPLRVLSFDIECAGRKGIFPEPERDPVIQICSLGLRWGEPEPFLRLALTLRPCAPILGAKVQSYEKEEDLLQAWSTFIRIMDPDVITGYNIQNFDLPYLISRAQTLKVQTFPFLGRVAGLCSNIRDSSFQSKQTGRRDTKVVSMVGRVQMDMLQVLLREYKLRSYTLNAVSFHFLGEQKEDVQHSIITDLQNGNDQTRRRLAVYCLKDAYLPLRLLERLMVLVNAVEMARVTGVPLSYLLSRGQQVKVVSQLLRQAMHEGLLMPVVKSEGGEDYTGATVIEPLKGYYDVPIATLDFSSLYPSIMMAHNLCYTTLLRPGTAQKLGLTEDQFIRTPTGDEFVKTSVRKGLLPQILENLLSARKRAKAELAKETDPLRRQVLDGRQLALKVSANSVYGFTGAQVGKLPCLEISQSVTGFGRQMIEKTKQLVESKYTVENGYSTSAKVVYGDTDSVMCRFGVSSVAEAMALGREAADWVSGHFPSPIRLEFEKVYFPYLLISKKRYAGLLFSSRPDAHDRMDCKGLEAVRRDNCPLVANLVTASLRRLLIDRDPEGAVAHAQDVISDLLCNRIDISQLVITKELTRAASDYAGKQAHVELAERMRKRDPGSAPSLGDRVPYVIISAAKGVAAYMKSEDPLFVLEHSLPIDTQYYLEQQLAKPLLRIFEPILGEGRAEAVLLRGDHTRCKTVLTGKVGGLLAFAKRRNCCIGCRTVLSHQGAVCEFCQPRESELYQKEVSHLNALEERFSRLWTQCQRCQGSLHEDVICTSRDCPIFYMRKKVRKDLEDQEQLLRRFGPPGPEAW

effect of a mutation on the interaction | Variant
with no effect | MSRVPSPPPPAEMSSGPVAESWCYTQIKVVKFSYMWTINNFSFCREEMGEVIKSSTFSSGANDKLKWCLRVNPKGLDEESKDYLSLYLLLVSCPKSEVRAKFKFSILNAKGEETKAMESQRAYRFVQGKDWGVKKFIRRDFLLDEANGLLPDDKLTLFCEVSVVQDSVNISGQNTMNMVKVPECRLADELGGLWENSRFTDCCLCVAGQEFQAHKAILAARSPVFSAMFEHEMEESKKNRVEINDVEPEVFKEMMCFIYTGKAPNLDKMADDLLAAADKYALERLKVMCEDALCSNLSVENAAEILILADLHSADQLKTQAVDFINYHASDVLETSGWKSMVVSHPHLVAEAYRSLASAQCPFLGPPRKRLKQS [F133V]

Variants of: B1
Conditions: with dpoe1_human POLE

effect of a mutation on the interaction | Variant
with no effect | MSRVPSPPPPAEMSSGPVAESWCYTQIKVVKFSYMWTINNFSFCREEMGEVIKSSTFSSGANDKLKWCLRVNPKGLDEESKDYLSLYLLLVSCPKSEVRAKFKFSILNAKGEETKAMESQRAYRFVQGKDWGVKKFIRRDFLLDEANGLLPDDKLTLFCEVSVVQDSVNISGQNTMNMVKVPECRLADELGGLWENSRFTDCCLCVAGQEFQAHKAILAARSPVFSAMFEHEMEESKKNRVEINDVEPEVFKEMMCFIYTGKAPNLDKMADDLLAAADKYALERLKVMCEDALCSNLSVENAAEILILADLHSADQLKTQAVDFINYHASDVLETSGWKSMVVSHPHLVAEAYRSLASAQCPFLGPPRKRLKQS [F133V]

Variants of: B1
Conditions: with ppard_human PPARD

effect of a mutation on the interaction | Variant
with no effect | MSRVPSPPPPAEMSSGPVAESWCYTQIKVVKFSYMWTINNFSFCREEMGEVIKSSTFSSGANDKLKWCLRVNPKGLDEESKDYLSLYLLLVSCPKSEVRAKFKFSILNAKGEETKAMESQRAYRFVQGKDWGVKKFIRRDFLLDEANGLLPDDKLTLFCEVSVVQDSVNISGQNTMNMVKVPECRLADELGGLWENSRFTDCCLCVAGQEFQAHKAILAARSPVFSAMFEHEMEESKKNRVEINDVEPEVFKEMMCFIYTGKAPNLDKMADDLLAAADKYALERLKVMCEDALCSNLSVENAAEILILADLHSADQLKTQAVDFINYHASDVLETSGWKSMVVSHPHLVAEAYRSLASAQCPFLGPPRKRLKQS [F133V]

Variants of: B1
Conditions: with prdm1_human PRDM1, O75626
prdm1_human PRDM1, O75626, sequence (O75626 whole entry): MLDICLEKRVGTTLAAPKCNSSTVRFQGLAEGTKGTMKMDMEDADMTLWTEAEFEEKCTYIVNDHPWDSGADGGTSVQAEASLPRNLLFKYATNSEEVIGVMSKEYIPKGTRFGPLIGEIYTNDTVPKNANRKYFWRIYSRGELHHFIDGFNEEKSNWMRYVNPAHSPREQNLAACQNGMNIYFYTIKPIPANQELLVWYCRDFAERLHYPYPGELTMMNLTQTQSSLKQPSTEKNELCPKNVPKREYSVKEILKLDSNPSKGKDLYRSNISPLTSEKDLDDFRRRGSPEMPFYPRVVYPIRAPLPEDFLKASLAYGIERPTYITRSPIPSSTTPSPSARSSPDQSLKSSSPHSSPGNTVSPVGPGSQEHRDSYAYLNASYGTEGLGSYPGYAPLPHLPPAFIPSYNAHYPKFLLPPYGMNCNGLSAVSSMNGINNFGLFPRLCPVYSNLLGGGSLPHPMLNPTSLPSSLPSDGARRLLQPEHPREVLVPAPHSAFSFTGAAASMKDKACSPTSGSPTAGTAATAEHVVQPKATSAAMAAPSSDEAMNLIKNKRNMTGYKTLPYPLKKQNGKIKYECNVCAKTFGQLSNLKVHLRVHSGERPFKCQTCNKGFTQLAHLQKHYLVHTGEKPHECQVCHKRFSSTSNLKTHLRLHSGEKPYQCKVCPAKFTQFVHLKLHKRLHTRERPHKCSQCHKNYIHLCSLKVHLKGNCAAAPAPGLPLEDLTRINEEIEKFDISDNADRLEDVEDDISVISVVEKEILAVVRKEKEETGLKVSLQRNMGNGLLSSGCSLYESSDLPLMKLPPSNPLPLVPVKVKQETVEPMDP

effect of a mutation on the interaction | Variant
with no effect | MSRVPSPPPPAEMSSGPVAESWCYTQIKVVKFSYMWTINNFSFCREEMGEVIKSSTFSSGANDKLKWCLRVNPKGLDEESKDYLSLYLLLVSCPKSEVRAKFKFSILNAKGEETKAMESQRAYRFVQGKDWGVKKFIRRDFLLDEANGLLPDDKLTLFCEVSVVQDSVNISGQNTMNMVKVPECRLADELGGLWENSRFTDCCLCVAGQEFQAHKAILAARSPVFSAMFEHEMEESKKNRVEINDVEPEVFKEMMCFIYTGKAPNLDKMADDLLAAADKYALERLKVMCEDALCSNLSVENAAEILILADLHSADQLKTQAVDFINYHASDVLETSGWKSMVVSHPHLVAEAYRSLASAQCPFLGPPRKRLKQS [F133V]

Variants of: B1
Conditions: with prex2_human PREX2, Q70Z35

effect of a mutation on the interaction | Variant
with no effect | MSRVPSPPPPAEMSSGPVAESWCYTQIKVVKFSYMWTINNFSFCREEMGEVIKSSTFSSGANDKLKWCLRVNPKGLDEESKDYLSLYLLLVSCPKSEVRAKFKFSILNAKGEETKAMESQRAYRFVQGKDWGVKKFIRRDFLLDEANGLLPDDKLTLFCEVSVVQDSVNISGQNTMNMVKVPECRLADELGGLWENSRFTDCCLCVAGQEFQAHKAILAARSPVFSAMFEHEMEESKKNRVEINDVEPEVFKEMMCFIYTGKAPNLDKMADDLLAAADKYALERLKVMCEDALCSNLSVENAAEILILADLHSADQLKTQAVDFINYHASDVLETSGWKSMVVSHPHLVAEAYRSLASAQCPFLGPPRKRLKQS [F133V]

Variants of: B1
Conditions: with aapk2_human PRKAA2, P54646
aapk2_human PRKAA2, P54646, sequence (P54646 whole entry, looked up): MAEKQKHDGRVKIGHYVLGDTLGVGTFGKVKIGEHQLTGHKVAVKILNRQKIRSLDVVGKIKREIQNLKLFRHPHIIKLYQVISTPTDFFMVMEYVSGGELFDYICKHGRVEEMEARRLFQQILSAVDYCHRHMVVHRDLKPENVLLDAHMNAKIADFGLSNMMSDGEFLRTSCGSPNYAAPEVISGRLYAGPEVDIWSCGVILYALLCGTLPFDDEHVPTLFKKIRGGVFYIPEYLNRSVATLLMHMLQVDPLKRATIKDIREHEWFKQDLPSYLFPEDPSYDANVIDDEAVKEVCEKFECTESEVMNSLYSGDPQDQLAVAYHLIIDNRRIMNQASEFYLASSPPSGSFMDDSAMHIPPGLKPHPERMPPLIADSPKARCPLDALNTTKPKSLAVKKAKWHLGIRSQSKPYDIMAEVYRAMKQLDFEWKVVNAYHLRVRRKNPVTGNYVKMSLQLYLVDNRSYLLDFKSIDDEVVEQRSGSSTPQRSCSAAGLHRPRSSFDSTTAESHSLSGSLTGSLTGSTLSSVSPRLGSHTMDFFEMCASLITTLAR

effect of a mutation on the interaction | Variant
with no effect | MSRVPSPPPPAEMSSGPVAESWCYTQIKVVKFSYMWTINNFSFCREEMGEVIKSSTFSSGANDKLKWCLRVNPKGLDEESKDYLSLYLLLVSCPKSEVRAKFKFSILNAKGEETKAMESQRAYRFVQGKDWGVKKFIRRDFLLDEANGLLPDDKLTLFCEVSVVQDSVNISGQNTMNMVKVPECRLADELGGLWENSRFTDCCLCVAGQEFQAHKAILAARSPVFSAMFEHEMEESKKNRVEINDVEPEVFKEMMCFIYTGKAPNLDKMADDLLAAADKYALERLKVMCEDALCSNLSVENAAEILILADLHSADQLKTQAVDFINYHASDVLETSGWKSMVVSHPHLVAEAYRSLASAQCPFLGPPRKRLKQS [F133V]

Variants of: B1
Conditions: with prss8_human PRSS8, Q16651
prss8_human PRSS8, Q16651, sequence (Q16651 whole entry, looked up): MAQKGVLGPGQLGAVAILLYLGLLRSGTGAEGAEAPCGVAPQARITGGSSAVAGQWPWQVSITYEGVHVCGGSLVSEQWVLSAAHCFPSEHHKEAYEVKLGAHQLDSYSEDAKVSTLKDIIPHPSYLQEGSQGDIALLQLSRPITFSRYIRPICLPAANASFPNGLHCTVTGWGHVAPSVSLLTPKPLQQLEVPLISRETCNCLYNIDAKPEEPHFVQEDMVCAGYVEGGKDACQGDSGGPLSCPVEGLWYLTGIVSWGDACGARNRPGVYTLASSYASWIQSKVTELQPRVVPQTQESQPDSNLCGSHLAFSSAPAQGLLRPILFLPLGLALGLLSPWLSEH

effect of a mutation on the interaction | Variant
with no effect | MSRVPSPPPPAEMSSGPVAESWCYTQIKVVKFSYMWTINNFSFCREEMGEVIKSSTFSSGANDKLKWCLRVNPKGLDEESKDYLSLYLLLVSCPKSEVRAKFKFSILNAKGEETKAMESQRAYRFVQGKDWGVKKFIRRDFLLDEANGLLPDDKLTLFCEVSVVQDSVNISGQNTMNMVKVPECRLADELGGLWENSRFTDCCLCVAGQEFQAHKAILAARSPVFSAMFEHEMEESKKNRVEINDVEPEVFKEMMCFIYTGKAPNLDKMADDLLAAADKYALERLKVMCEDALCSNLSVENAAEILILADLHSADQLKTQAVDFINYHASDVLETSGWKSMVVSHPHLVAEAYRSLASAQCPFLGPPRKRLKQS [F133V]

Variants of: B1
Conditions: with ptk6_human PTK6, Q13882

effect of a mutation on the interaction | Variant
with no effect | MSRVPSPPPPAEMSSGPVAESWCYTQIKVVKFSYMWTINNFSFCREEMGEVIKSSTFSSGANDKLKWCLRVNPKGLDEESKDYLSLYLLLVSCPKSEVRAKFKFSILNAKGEETKAMESQRAYRFVQGKDWGVKKFIRRDFLLDEANGLLPDDKLTLFCEVSVVQDSVNISGQNTMNMVKVPECRLADELGGLWENSRFTDCCLCVAGQEFQAHKAILAARSPVFSAMFEHEMEESKKNRVEINDVEPEVFKEMMCFIYTGKAPNLDKMADDLLAAADKYALERLKVMCEDALCSNLSVENAAEILILADLHSADQLKTQAVDFINYHASDVLETSGWKSMVVSHPHLVAEAYRSLASAQCPFLGPPRKRLKQS [F133V]

Variants of: B1
Conditions: with tf65_human RELA

effect of a mutation on the interaction | Variant
with no effect | MSRVPSPPPPAEMSSGPVAESWCYTQIKVVKFSYMWTINNFSFCREEMGEVIKSSTFSSGANDKLKWCLRVNPKGLDEESKDYLSLYLLLVSCPKSEVRAKFKFSILNAKGEETKAMESQRAYRFVQGKDWGVKKFIRRDFLLDEANGLLPDDKLTLFCEVSVVQDSVNISGQNTMNMVKVPECRLADELGGLWENSRFTDCCLCVAGQEFQAHKAILAARSPVFSAMFEHEMEESKKNRVEINDVEPEVFKEMMCFIYTGKAPNLDKMADDLLAAADKYALERLKVMCEDALCSNLSVENAAEILILADLHSADQLKTQAVDFINYHASDVLETSGWKSMVVSHPHLVAEAYRSLASAQCPFLGPPRKRLKQS [F133V]

Variants of: B1
Conditions: with rictr_human RICTOR

effect of a mutation on the interaction | Variant
with no effect | MSRVPSPPPPAEMSSGPVAESWCYTQIKVVKFSYMWTINNFSFCREEMGEVIKSSTFSSGANDKLKWCLRVNPKGLDEESKDYLSLYLLLVSCPKSEVRAKFKFSILNAKGEETKAMESQRAYRFVQGKDWGVKKFIRRDFLLDEANGLLPDDKLTLFCEVSVVQDSVNISGQNTMNMVKVPECRLADELGGLWENSRFTDCCLCVAGQEFQAHKAILAARSPVFSAMFEHEMEESKKNRVEINDVEPEVFKEMMCFIYTGKAPNLDKMADDLLAAADKYALERLKVMCEDALCSNLSVENAAEILILADLHSADQLKTQAVDFINYHASDVLETSGWKSMVVSHPHLVAEAYRSLASAQCPFLGPPRKRLKQS [F133V]

Variants of: B1
Conditions: with rnf43_human RNF43, Q68DV7
rnf43_human RNF43, Q68DV7, sequence (Q68DV7 whole entry): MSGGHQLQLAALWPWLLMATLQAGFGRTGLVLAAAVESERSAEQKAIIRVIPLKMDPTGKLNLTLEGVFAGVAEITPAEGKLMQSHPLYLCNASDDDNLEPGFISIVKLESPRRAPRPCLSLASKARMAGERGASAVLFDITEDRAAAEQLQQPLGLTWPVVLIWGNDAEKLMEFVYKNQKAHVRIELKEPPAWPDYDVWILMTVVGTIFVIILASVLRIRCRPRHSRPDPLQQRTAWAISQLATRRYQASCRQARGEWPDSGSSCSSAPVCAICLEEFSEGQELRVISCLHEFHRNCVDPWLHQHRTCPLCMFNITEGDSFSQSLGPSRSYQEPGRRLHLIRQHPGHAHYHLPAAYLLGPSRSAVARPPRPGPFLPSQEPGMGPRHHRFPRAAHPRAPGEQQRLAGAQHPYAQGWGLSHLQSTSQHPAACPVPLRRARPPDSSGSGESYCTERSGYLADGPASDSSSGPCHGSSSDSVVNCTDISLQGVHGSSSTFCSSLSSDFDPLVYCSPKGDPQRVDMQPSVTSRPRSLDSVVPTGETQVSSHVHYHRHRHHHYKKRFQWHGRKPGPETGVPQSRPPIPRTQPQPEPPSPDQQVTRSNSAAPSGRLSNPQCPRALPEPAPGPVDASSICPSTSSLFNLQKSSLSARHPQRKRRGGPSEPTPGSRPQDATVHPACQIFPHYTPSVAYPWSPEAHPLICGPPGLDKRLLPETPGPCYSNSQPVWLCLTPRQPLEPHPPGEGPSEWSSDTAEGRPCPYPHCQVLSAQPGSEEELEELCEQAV

effect of a mutation on the interaction | Variant
with no effect | MSRVPSPPPPAEMSSGPVAESWCYTQIKVVKFSYMWTINNFSFCREEMGEVIKSSTFSSGANDKLKWCLRVNPKGLDEESKDYLSLYLLLVSCPKSEVRAKFKFSILNAKGEETKAMESQRAYRFVQGKDWGVKKFIRRDFLLDEANGLLPDDKLTLFCEVSVVQDSVNISGQNTMNMVKVPECRLADELGGLWENSRFTDCCLCVAGQEFQAHKAILAARSPVFSAMFEHEMEESKKNRVEINDVEPEVFKEMMCFIYTGKAPNLDKMADDLLAAADKYALERLKVMCEDALCSNLSVENAAEILILADLHSADQLKTQAVDFINYHASDVLETSGWKSMVVSHPHLVAEAYRSLASAQCPFLGPPRKRLKQS [F133V]

Variants of: B1
Conditions: with ros1_human ROS1, P08922

effect of a mutation on the interaction | Variant
with no effect | MSRVPSPPPPAEMSSGPVAESWCYTQIKVVKFSYMWTINNFSFCREEMGEVIKSSTFSSGANDKLKWCLRVNPKGLDEESKDYLSLYLLLVSCPKSEVRAKFKFSILNAKGEETKAMESQRAYRFVQGKDWGVKKFIRRDFLLDEANGLLPDDKLTLFCEVSVVQDSVNISGQNTMNMVKVPECRLADELGGLWENSRFTDCCLCVAGQEFQAHKAILAARSPVFSAMFEHEMEESKKNRVEINDVEPEVFKEMMCFIYTGKAPNLDKMADDLLAAADKYALERLKVMCEDALCSNLSVENAAEILILADLHSADQLKTQAVDFINYHASDVLETSGWKSMVVSHPHLVAEAYRSLASAQCPFLGPPRKRLKQS [F133V]

Variants of: B1
Conditions: with rl11_human RPL11, P62913

effect of a mutation on the interaction | Variant
with no effect | MSRVPSPPPPAEMSSGPVAESWCYTQIKVVKFSYMWTINNFSFCREEMGEVIKSSTFSSGANDKLKWCLRVNPKGLDEESKDYLSLYLLLVSCPKSEVRAKFKFSILNAKGEETKAMESQRAYRFVQGKDWGVKKFIRRDFLLDEANGLLPDDKLTLFCEVSVVQDSVNISGQNTMNMVKVPECRLADELGGLWENSRFTDCCLCVAGQEFQAHKAILAARSPVFSAMFEHEMEESKKNRVEINDVEPEVFKEMMCFIYTGKAPNLDKMADDLLAAADKYALERLKVMCEDALCSNLSVENAAEILILADLHSADQLKTQAVDFINYHASDVLETSGWKSMVVSHPHLVAEAYRSLASAQCPFLGPPRKRLKQS [F133V]
